Reference: patent publication US20230220005A1, “S100A8-INHIBITING PEPTIDE AND DISEASE THERAPEUTIC AGENT CONTAINING SAME” (TOKYO WOMEN'S MEDICAL UNIVERSITY, priority 2020, published 2023)
One block for each substance: values may come before it. Ends that are not written are not given here.

What was measured:
TLR4/MD-2 [1] = target: T1, TLR4/MD-2 (Homo sapiens, UniProt O00206+Q9Y6Y9); experiment: ELISA: binding of TLR4/MD-2 to peptides immobilized on plate; settings: for binding to TLR4/MD-2 of alanine-substituted peptides: alanine scanning, amino terminus acetylated, carboxyl terminus amidated, immobilized on ELISA plate, FIG. 3
T1 sequence (O00206 24-631 limits assumed): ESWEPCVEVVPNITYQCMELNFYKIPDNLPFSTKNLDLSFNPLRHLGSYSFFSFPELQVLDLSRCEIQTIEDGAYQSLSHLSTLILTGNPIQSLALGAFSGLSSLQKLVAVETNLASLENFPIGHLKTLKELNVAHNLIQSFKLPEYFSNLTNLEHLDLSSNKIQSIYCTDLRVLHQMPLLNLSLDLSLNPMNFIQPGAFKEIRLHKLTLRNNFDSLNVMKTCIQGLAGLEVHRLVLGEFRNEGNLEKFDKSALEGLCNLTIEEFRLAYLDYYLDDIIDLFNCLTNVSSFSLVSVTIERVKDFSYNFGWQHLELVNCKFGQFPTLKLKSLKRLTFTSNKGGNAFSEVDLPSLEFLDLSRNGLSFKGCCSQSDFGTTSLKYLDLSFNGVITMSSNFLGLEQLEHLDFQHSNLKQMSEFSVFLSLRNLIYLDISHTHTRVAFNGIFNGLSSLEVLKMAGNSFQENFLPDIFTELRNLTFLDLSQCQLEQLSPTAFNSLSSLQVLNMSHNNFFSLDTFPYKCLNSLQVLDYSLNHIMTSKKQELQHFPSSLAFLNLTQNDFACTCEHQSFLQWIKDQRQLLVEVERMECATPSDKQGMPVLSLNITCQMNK
T1 sequence (Q9Y6Y9 19-160): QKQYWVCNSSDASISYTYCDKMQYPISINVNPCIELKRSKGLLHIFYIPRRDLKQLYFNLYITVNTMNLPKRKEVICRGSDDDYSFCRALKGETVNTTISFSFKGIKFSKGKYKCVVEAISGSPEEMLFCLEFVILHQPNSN
Description: Furthermore, for the purpose of narrowing the binding region with the TLR4/MD-2 complex, a peptide of 10 amino acids in the carboxyl terminal amino acid sequence was synthesized. At this time, the sequence can be comprehensively analyzed by overlapping by five amino acids. The synthesized peptides were immobilized on an ELISA plate (Thermo Fisher Scientific Inc.; Maxisorp), and then non-specific binding was blocked with a blocking buffer. Each well was washed with PBS-Tween 20 and then incubated with a high-purity human TLR4/MD-2 recombinant protein, then each well was incubated with an anti-TLR4 antibody (Abcam) and an anti-rabbit IgG-HRP labeled antibody (GE Healthcare), and finally a reaction with TMB as an HRP substrate was terminated with an equivalent of 1 N sulfuric acid. The amount of bound TLR4/MD-2 was quantified by measuring the absorbance at OD 450 nm.
In addition, acetylation was introduced at the amino terminus of these peptides, and amidation modification was introduced at the carboxyl terminus. These 10 peptides were immobilized on an ELISA plate (Thermo Fisher Scientific Inc.; Maxisorp) to verify binding with TLR4/MD-2.

[2] = target: T2, binding of S100A8 to TLR4/MD-2 complex (Homo sapiens, UniProt O00206+Q9Y6Y9); experiment: Competition ELISA: binding of S100A8 to TLR4/MD-2 complex; settings: for competitive activity in competition assay, divalent and tetravalent peptides: FIG. 8; for competitive inhibitory activity on binding of S100A8 to TLR4/MD-2 complex, candidate peptides: chain length screening candidates, FIG. 7(B)
T2 sequence (O00206 24-631 limits assumed): as the sequence (O00206 24-631 limits assumed) above
T2 sequence (Q9Y6Y9 19-160): as the sequence (Q9Y6Y9 19-160) above
Description: Pre-purified S100A8 protein was immobilized on an ELISA plate. Non-specific binding was blocked with blocking buffer in the same manner as in Example 1. Peptides #1 to #6 were added simultaneously with TLR4/MD-2, and the mixture was reacted. Each well was washed with PBS-Tween 20, then incubated with an anti-TLR4 antibody (Abcam) and an anti-rabbit IgG-HRP labeled antibody (GE Healthcare) subsequently, and finally a reaction with TMB as an HRP substrate was terminated with an equivalent of 1 N sulfuric acid. Bound TLR4/MD-2 was quantified by measuring the absorbance at OD 450 nm.
(§1) In order to identify an essential region in the Peptide3A5 sequence, a series of partial sequence peptides based on the amino acid sequence of Peptide3A5, which were obtained by deleting the amino acid from the amino terminal side or the carboxyl terminal side, were spot-synthesized as divalent peptides on a cellulose membrane sheet using the method of Patent Literature 1. Several kinds of affinity peptides with high affinity to TLR4/MD-2 were obtained by reacting the sheet with TLR4/MD-2 (FIG. 7A). Candidate peptides were subjected to a competition assay similar to Example 1 (FIG. 2).
A competition assay was performed using divalent ILVIK (SEQ ID NO. 2), divalent Peptide3A5 (SEQ ID NO. 1), and tetravalent ILVIK. The tetravalent ILVIK was also synthesized using the method of Patent Literature 1.

[3] = system: SW480 cells subcutaneous tumor; experiment: Antitumor activity in SW480 xenograft model; assay type: in vivo; settings: mouse, two weeks
Description: (§2) First, two weeks after transplantation of SW480 cells subcutaneously in a mouse, the size of the subcutaneous tumor was measured, and confirmed to be equivalent tumor size. The peptide was administered to the abdominal cavity at the indicated concentrations twice a week, and the size of the tumor was measured over time. After two weeks, the size of the subcutaneous tumor was measured, and the subcutaneous tumor was collected.
The divalent ILVIK was identified as an S100A8-inhibiting peptide candidate by chain length screening, and influence of the divalent ILVIK on mouse subcutaneous tumors was examined in the same manner as in Example 5 (FIG. 6). First, two weeks after transplantation of SW480 cells subcutaneously in a mouse, the size of the subcutaneous tumor is measured, and confirmed to be equivalent tumor size. The peptide was administered to the abdominal cavity at the indicated concentrations twice a week, and the size of the tumor was measured over time. After two weeks, the size of the subcutaneous tumor was measured, and the subcutaneous tumor was collected.
as §2, with “tetravalent ILVIK” for “peptide”, “concentrations (1 mg/kg, 5 mg/kg, 10 mg/kg)” for “concentrations”

TLR4/MD-2 [4] = target: T1, TLR4/MD-2; experiment: Chain length screening: divalent peptides spot-synthesized on cellulose membrane sheet reacted with TLR4/MD-2; assay type: binding; settings: FIG. 7(A)
Source text: as §1

[5] = target: T2, binding of S100A8 to TLR4/MD-2 complex; experiment: Competition by immunoprecipitation with anti-TLR4 antibody and Western blotting; settings: 10 times the molar amount of peptide; S100A8 detected by Western blotting; FIG. 2B
Description: The TLR4/MD-2 complex and S100A8 were mixed in a tube. At this time, 10 times the molar amount of each of Peptides #1 to #6 was added, and immunoprecipitation was performed with an anti-TLR4 antibody. The immunoprecipitate was washed several times with a washing buffer, and the final pellet was electrophoresed by SDS-PAGE. Then, S100A8 and TLR4 were detected by Western blotting using an anti-S100A8 antibody and an anti-TLR4 antibody.

[6] = system: IL-8 mRNA expression in human colorectal cancer SW480 cells; experiment: IL-8 mRNA induction by S100A8 in SW480 cells; assay type: cell-based; settings: SW480 cells pretreated with peptide, stimulated with S100A8 recombinant protein, after 5 hours; FIG. 4
Description: Human colorectal cancer SW480 cells express TLR4, and induce IL-8 by S100A8 stimulation. In order to verify inhibitory activity of peptides isolated so far, after pretreating divalent Peptide #3 or divalent Peptide3A5, the cells were stimulated with S100A8 recombinant protein, and the mRNA expression of IL-8 after 5 hours was analyzed. The divalent Peptide #3 and the divalent Peptide3A5 were prepared according to the method of Patent Literature 1 described above.

[7] = peptide to the abdominal cavity twice a week, FIG. 6, FIG. 9

Substance: tetravalent ILVIK: tetravalent peptide containing four ILVIK sequences, synthesized using the method of Patent Literature 1
competitive activity in competition assay, divalent and tetravalent peptides [2]: almost the same competitive activity as the divalent ILVIK | development of subcutaneous tumor (tumor size) ([3]; 1 mg/kg, 5 mg/kg, 10 mg/kg to the abdominal cavity twice a week, FIG. 10): suppressed the development of mouse subcutaneous tumors in a concentration-dependent manner

Substance: Phe-Gln-Glu-Phe-Leu-Ile-Leu-Val-Ile-Lys (FQEFLILVIK) [Peptide #3]
competitive inhibitory activity on the binding between S100A8 and the TLR4/MD-2 complex (ELISA) ([2]; S100A8 immobilized, peptide added simultaneously with TLR4/MD-2, FIG. 2A): found to have competitive inhibitory activity | competitive inhibitory activity on the binding of S100A8 to the TLR4/MD-2 complex (immunoprecipitation) [5]: had competitive inhibitory activity | affinity for TLR4/MD-2 (amount of bound TLR4/MD-2, absorbance at OD 450 nm) (TLR4/MD-2 [1]; overlapping 10 amino acid peptides immobilized on ELISA plate, FIG. 1): high affinity for TLR4/MD-2

Substance: divalent Peptide3A5: divalent peptide containing two Peptide3A5 (SEQ ID NO. 1) sequences, prepared according to the method of Patent Literature 1 (chain 1 FQEFAILVIK; chain 2 FQEFAILVIK; also: divalent linkage of two copies (linker not given here))
competitive inhibitory activity, monovalent versus divalent ([2]; various concentrations added simultaneously with TLR4/MD-2 complex, FIG. 5): showed the competitive inhibitory activity at a lower concentration as compared with the monovalent type | development of subcutaneous tumor (tumor size) [3, 7]: suppressed the development of subcutaneous tumor in mice in a concentration-dependent manner | expression of mRNA of IL-8 induced by S100A8 [6]: remarkably inhibited

Substance: divalent ILVIK: divalent peptide containing two ILVIK (SEQ ID NO. 2) sequences (also: divalent linkage of two copies (linker not given here))
competitive activity in competition assay, divalent and tetravalent peptides [2]: almost similar competitive activity as the divalent Peptide3A5 | development of subcutaneous tumor (tumor size) [3, 7]: suppressed the development of mouse subcutaneous tumor in a concentration-dependent manner

Substance: divalent Peptide #3: divalent peptide containing two Peptide #3 sequences, prepared according to the method of Patent Literature 1 (FQEFLILVIK)
expression of mRNA of IL-8 induced by S100A8 [6]: remarkably inhibited

Substance: FQEFAILVIK [Peptide3A5]
binding to TLR4/MD-2 of alanine-substituted peptides (TLR4/MD-2 [1]): higher affinity for TLR4/MD-2 than Peptide #3

More lines, now with the values ahead:

binding to TLR4/MD-2 of alanine-substituted peptides (TLR4/MD-2 [1]): reduced
Substance: Peptide3A6: Peptide #3 (SEQ ID NO: 13) with position 6 from the N-terminal side substituted with alanine; acetylated amino terminus, amidated carboxyl terminus (Ac-FQEFLALVIK-NH2)

competitive inhibitory activity on binding of S100A8 to TLR4/MD-2 complex, candidate peptides [2]: competitive inhibitory activity | affinity for TLR4/MD-2 of partial sequence peptides (TLR4/MD-2 [4]): high affinity
Substance: Phe-Gln-Glu-Phe-Ala-Ile-Leu-Val-Ile (FQEFAILVI) [SEQ ID NO: 3]

competitive inhibitory activity on binding of S100A8 to TLR4/MD-2 complex, candidate peptides [2]: competitive inhibitory activity | affinity for TLR4/MD-2 of partial sequence peptides (TLR4/MD-2 [4]): high affinity
Substance: Ile-Leu-Val-Ile-Lys (ILVIK) [SEQ ID NO: 2]

competitive inhibitory activity on binding of S100A8 to TLR4/MD-2 complex, candidate peptides [2]: competitive inhibitory activity | affinity for TLR4/MD-2 of partial sequence peptides (TLR4/MD-2 [4]): high affinity
Substance: Gln-Glu-Phe-Ala-Ile-Leu-Val (QEFAILV) [SEQ ID NO: 4]

binding to TLR4/MD-2 of alanine-substituted peptides (TLR4/MD-2 [1]): reduced
Substance: Peptide3A7: Peptide #3 (SEQ ID NO: 13) with position 7 from the N-terminal side substituted with alanine; acetylated amino terminus, amidated carboxyl terminus (Ac-FQEFLIAVIK-NH2)

binding to TLR4/MD-2 of alanine-substituted peptides (TLR4/MD-2 [1]): reduced
Substance: Peptide3A10: Peptide #3 (SEQ ID NO: 13) with position 10 from the N-terminal side substituted with alanine; acetylated amino terminus, amidated carboxyl terminus (Ac-FQEFLILVIA-NH2)

binding to TLR4/MD-2 of alanine-substituted peptides (TLR4/MD-2 [1]): reduced
Substance: Peptide3A8: Peptide #3 (SEQ ID NO: 13) with position 8 from the N-terminal side substituted with alanine; acetylated amino terminus, amidated carboxyl terminus (Ac-FQEFLILAIK-NH2)
